In US20200317812A1 (AGENCY FOR SCIENCE TECHNOLOGY AND RESEARCH, published 2020):

Target: T1, AXL receptor tyrosine kinase (Homo sapiens, UniProt P30530 26-894, O-linked glycan (site not stated) reported as the TAG_TNB1 epitope)
T1 sequence (looked up): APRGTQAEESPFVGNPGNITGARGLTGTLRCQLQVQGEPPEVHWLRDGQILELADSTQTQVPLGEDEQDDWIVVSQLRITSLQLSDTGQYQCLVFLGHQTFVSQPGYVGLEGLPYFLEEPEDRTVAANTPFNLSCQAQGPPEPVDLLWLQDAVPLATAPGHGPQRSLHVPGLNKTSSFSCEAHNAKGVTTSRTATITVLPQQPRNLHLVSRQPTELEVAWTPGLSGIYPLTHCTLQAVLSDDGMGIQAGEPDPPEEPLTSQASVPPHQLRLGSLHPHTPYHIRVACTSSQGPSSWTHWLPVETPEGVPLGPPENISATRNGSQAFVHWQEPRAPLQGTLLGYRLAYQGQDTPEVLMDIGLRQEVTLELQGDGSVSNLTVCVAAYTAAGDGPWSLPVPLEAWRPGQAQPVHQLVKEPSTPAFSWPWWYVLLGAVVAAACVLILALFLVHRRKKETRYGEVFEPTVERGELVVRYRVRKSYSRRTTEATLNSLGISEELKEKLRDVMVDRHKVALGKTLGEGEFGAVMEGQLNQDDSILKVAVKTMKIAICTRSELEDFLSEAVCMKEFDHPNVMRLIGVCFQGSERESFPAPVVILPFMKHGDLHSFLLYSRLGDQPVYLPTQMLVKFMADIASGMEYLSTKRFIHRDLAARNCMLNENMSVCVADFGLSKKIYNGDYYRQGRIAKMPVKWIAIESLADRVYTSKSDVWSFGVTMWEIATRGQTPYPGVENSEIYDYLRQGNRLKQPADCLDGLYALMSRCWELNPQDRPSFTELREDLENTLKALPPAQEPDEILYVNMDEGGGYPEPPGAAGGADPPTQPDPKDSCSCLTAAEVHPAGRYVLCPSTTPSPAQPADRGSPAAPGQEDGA
Test: cell-based or functional assay

B1: ch_TAG_TNB1-saporin (antibody, V domains shown)
VH: QVKLQESGAELVKPGASVKLSCKASGFTFTSYYMYWVKQRPGQGLEWIGGVSPSNGGANFNEKFKTKATLTVDKSSSTAYMQLSSLTSEDSAVYYCTRFLYGPRYFDVWGQGTTVTVSS
VL: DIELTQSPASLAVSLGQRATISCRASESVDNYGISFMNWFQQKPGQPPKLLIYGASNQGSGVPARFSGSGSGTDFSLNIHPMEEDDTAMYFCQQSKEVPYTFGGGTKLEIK
modifications: Saporin toxin directly conjugated to the antibody; site and chain not stated
With B1 the “IC50, Cell Titre Glo cell viability, BT549 cells” value was 1.24 nM, the “IC50, Cell Titre Glo cell viability, H1299 cells” value was 0.0353 nM and the “IC50, Cell Titre Glo cell viability, Hs578T cells” value was 0.529 nM. For the same binder, the “IC50, Cell Titre Glo cell viability, MDA-MB-231 cells” value was 0.34 nM.
